In paper PMC8878202, “Interdisciplinary Study of the Effects of Dipeptidyl-Peptidase III Cancer Mutations on the KEAP1-NRF2 Signaling Pathway” (International Journal of Molecular Sciences, 2022):
Residue numbers refer to the chain shown, from its start. Names and notes keep the numbering of the source.

B1: Dipeptidyl peptidase III, wild type (enzyme, human, UniProt Q9NY33 1-737, looked up)
chain: MADTQYILPNDIGVSSLDCREAFRLLSPTERLYAYHLSRAAWYGGLAVLLQTSPEAPYIYALLSRLFRAQDPDQLRQHALAEGLTEEEYQAFLVYAAGVYSNMGNYKSFGDTKFVPNLPKEKLERVILGSEAAQQHPEEVRGLWQTCGELMFSLEPRLRHLGLGKEGITTYFSGNCTMEDAKLAQDFLDSQNLSAYNTRLFKEVDGEGKPYYEVRLASVLGSEPSLDSEVTSKLKSYEFRGSPFQVTRGDYAPILQKVVEQLEKAKAYAANSHQGQMLAQYIESFTQGSIEAHKRGSRFWIQDKGPIVESYIGFIESYRDPFGSRGEFEGFVAVVNKAMSAKFERLVASAEQLLKELPWPPTFEKDKFLTPDFTSLDVLTFAGSGIPAGINIPNYDDLRQTEGFKNVSLGNVLAVAYATQREKLTFLEEDDKDLYILWKGPSFDVQVGLHELLGHGSGKLFVQDEKGAFNFDQETVINPETGEQIQSWYRSGETWDSKFSTIASSYEECRAESVGLYLCLHPQVLEIFGFEGADAEDVIYVNWLNMVRAGLLALEFYTPEAFNWRQAHMQARFVILRVLLEAGEGLVTITPTTGSDGRPDARVRLDRSKIRSVGKPALERFLRRLQVLKSTGDVAGGRALYEGYATVTDAPPECFLTLRDTVLLRKESRKLIVQPNTRLEGSDVQLLEYEASAAGLIRSFSERFPEDGPELEEILTQLATADARFWKGPSEAPSGQA
notes: Dipeptidyl peptidase III (DPP III, EC 3.4.14.4), human, wild type, cloned into pLATE31; also called DPP III; WT DPP III; source: E. coli BL21-(DE3)-RIL+, purified (Ni-NTA agarose)
B2: DPP III P479S variant (enzyme, human, UniProt Q9NY33 1-737, looked up)
chain: B1 chain with P479S
notes: source: E. coli BL21-(DE3)-RIL+, purified (Ni-NTA agarose)
B3: DPP III E451K variant (enzyme, human, UniProt Q9NY33 1-737, looked up)
chain: B1 chain with E451K
notes: as for B2
B4: DPP III R638W variant (enzyme, human, UniProt Q9NY33 1-737, looked up)
chain: B1 chain with R638W
notes: as for B2
B5: DPP III R638L variant (enzyme, human, UniProt Q9NY33 1-737, looked up)
chain: B1 chain with R638L
notes: as for B2
B6: DPP III Q484H variant (enzyme, human, UniProt Q9NY33 1-737, looked up)
chain: B1 chain with Q484H
notes: as for B2
B7: DPP III E480Q variant (enzyme, human, UniProt Q9NY33 1-737, looked up)
chain: B1 chain with E480Q
notes: as for B2
B8: DPP III R510W variant (enzyme, human, UniProt Q9NY33 1-737, looked up)
chain: B1 chain with R510W
notes: as for B2
B9: DPP III R703C variant (enzyme, human, UniProt Q9NY33 1-737, looked up)
chain: B1 chain with R703C
notes: as for B2
B10: DPP III G482C variant (enzyme, human, UniProt Q9NY33 1-737, looked up)
chain: B1 chain with G482C
notes: as for B2
B11: DPP III T481M variant (enzyme, human, UniProt Q9NY33 1-737, looked up)
chain: B1 chain with T481M
notes: as for B2

Each binder was assayed against T1, Kelch domain of KEAP1 protein (UniProt Q14145 321-609, fluorescently labeled with RED-MALEIMIDE (Cysteine reactive) fluorescent dye) (assay: MST; Kelch domain labeled with RED-MALEIMIDE, 50 nM; DPP III or variant added; binding-induced fluorescence change on Monolith NT.115; 25 °C; 50 mM Tris, 100 mM NaCl, pH 8.2, 0.05% Tween; triplicate). Details: both partners purified.
T1 construct: Kelch domain of KEAP1 (Kelch-like ECH associated protein 1); plasmid pET15b with Kelch insert, gift of Mark Hannink; also called Kelch-like ECH associated protein 1 (Kelch domain); source: E. coli BL21-(DE3)-RIL+, purified (Ni-NTA agarose)
T1 sequence (Q14145 321-609): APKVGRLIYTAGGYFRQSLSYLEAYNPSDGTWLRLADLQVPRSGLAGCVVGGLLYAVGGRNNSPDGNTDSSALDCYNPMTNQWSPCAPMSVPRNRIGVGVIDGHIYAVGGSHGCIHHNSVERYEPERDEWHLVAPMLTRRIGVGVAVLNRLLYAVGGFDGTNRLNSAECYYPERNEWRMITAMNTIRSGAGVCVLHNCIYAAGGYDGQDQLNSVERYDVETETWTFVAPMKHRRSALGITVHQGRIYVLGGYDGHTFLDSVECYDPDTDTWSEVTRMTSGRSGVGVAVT

Binder | Kd(WT)/Kd(mut)
B1 | 1
B2 | 18.4
B3 | 2.1
B4 | 2
B5 | 2
B6 | 2.1
B7 | 0.1
B8 | 0.3
B9 | 1.7
B10 | 0.8
B11 | 0.1
